Source: patent US20090170762A1, “Treatment of Diabetes Related Obesity” (UUTech Limited, priority 2005, published 2009)
Substitutions are numbered along the chain they refer to. Blank lines part the entries; values can stand above or below the molecule they belong to. Square brackets hold non-standard residues; d marks the D form. Ends that are not written are not given here. * marks the point of attachment. Palmitoyl = CCCCCCCCCCCCCCCC(=O)*; Hyp = O=C(O)[C@@H]1C[C@@H](O)CN1

How the values were obtained:
[1] = target: DPP-IV (Homo sapiens, UniProt P27487); assay: Degradation of GIP and Glu3-substituted GIP analogs by DPP-IV (HPLC); format: in vitro ADME; settings: for Intact Peptide Remaining (%) 0 hrs. / remaining at 2 h, 2 μm / remaining at 4 h, 2 μm / remaining at 8 h, 2 μm: incubation with DPP-IV (5 mU), 37°C; for Intact Peptide Remaining (%) 0 hrs.: pH 7.8, 0 hrs; for half-life: incubation with DPP-IV, unit not given (time points in hrs), read-out: Estimated Half-Life; for remaining at 2 h, 2 μm / remaining at 4 h, 2 μm / remaining at 8 h, 2 μm: isolated DPP-IV enzyme (5 mU); for remaining at 2 h, 2 μm: pH 7.8, 2 hrs, read-out: Intact Peptide Remaining (%) 2 hrs.; for remaining at 4 h, 2 μm: pH 7.8, 4 hrs, read-out: Intact Peptide Remaining (%) 4 hrs.; for remaining at 8 h, 2 μm: pH 7.8, 8 hrs, read-out: Intact Peptide Remaining (%) 8 hrs.
[2] = target: T1, human GIP-R (Homo sapiens, UniProt P48546); assay: Cyclic AMP production in GIP-R transfected CHL cells; format: cell-based
T1 construct: expressed in transfected cells; host or cells: Chinese Hamster Lung (CHL) fibroblast cells, stably transfected
T1 sequence (P48546 22-466): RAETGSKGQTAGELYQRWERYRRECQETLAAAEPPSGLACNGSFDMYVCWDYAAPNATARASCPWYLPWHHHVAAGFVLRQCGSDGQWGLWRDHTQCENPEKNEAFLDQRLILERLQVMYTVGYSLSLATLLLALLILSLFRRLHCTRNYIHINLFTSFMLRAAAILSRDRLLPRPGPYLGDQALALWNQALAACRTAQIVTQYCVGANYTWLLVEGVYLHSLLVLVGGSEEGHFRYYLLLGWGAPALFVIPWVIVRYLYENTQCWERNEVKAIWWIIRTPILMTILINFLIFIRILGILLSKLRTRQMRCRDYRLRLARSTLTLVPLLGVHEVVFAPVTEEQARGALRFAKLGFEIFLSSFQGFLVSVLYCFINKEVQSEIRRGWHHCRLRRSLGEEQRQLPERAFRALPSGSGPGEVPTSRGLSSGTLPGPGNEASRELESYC
Procedure: Tissue Culture. […] (v/v) fetal bovine serum, 1% (v/v) antibiotics (100 U/ml penicillin, 0.1 mg/ml streptomycin) (all from Gibco, Paisley, Strathclyde, Scotland). BRIN-BD11 cells were cultured in RPMI-1640 tissue culture medium containing 10% (v/v) fetal bovine serum, 1% (v/v) antibiotics (100 U/ml penicillin, 0.1 mg/ml streptomycin) and 11.1 mm glucose. The origin and secretory characteristics of these cells have been described in detail previously (McClenaghan, N. H. et al., 1996, Diabetes 45:1132-1140). The cells were maintained in sterile tissue culture flasks (Corning Glass Works, Sunderland, UK) at 37° C. in an atmosphere of 5% CO2 and 95% air using a LEEC incubator (Laboratory Technical Engineering, Nottingham, UK).
Methods. […] The culture medium was removed and cells subsequently washed twice with 2 ml ice-cold HBS buffer (130 mm NaCl, 20 mm HEPES, 0.9 mm NaHPO4, 0.8 mm MgSO4, 5.4 mm KCl, 1.8 mm CaCl2, 5.6 mm glucose and 25 μm phenol red) (pH 7.4). […] The medium was subsequently removed and the cells lysed with […] of lysing solution (5% TCA, 3% SDS, 92% H2O, also containing 0.1 mm unlabelled cAMP and 0.1 mm unlabelled ATP) (Sigma, Poole, Dorset, UK). The plates were then left on a shaker at room temperature for 30 minutes and tritiated cAMP formation determined by column chromatography using Dowex and alumina ion exchange columns (BioRad Life Science Research, Alpha Analytical, Larne, UK) as previously described (Gault, V. A. et al 2002, Biochem. J. 367:913-920).

[3] = target: T2, human GIP receptor (GIP-R) (human, UniProt P48546 22-466); assay: cell-based or functional assay
T2 sequence (looked up): T1 sequence (P48546 22-466)

Chain of DPP-IV (P27487 whole entry, species assumed): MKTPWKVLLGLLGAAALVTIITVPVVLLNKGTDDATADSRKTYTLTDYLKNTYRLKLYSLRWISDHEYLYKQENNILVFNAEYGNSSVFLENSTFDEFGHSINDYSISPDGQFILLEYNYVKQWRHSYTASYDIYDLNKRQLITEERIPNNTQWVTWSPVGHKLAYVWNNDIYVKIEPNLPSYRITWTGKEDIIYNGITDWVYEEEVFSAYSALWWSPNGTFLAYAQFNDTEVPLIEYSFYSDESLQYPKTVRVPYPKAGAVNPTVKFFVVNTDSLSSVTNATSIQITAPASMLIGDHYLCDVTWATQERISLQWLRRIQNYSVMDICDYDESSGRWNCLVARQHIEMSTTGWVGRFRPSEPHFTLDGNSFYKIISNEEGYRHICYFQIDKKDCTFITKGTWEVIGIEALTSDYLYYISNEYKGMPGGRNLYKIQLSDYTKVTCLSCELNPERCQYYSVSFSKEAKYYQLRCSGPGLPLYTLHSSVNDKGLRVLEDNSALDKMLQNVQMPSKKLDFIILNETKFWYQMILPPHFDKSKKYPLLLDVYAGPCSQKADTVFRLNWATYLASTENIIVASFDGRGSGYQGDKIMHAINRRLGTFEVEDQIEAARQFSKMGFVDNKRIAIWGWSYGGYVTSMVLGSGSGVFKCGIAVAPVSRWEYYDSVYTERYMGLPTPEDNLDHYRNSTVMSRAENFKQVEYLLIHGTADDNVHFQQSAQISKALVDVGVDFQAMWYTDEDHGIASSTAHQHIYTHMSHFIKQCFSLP

Molecule: YA[Hyp]GTFISDYSIAMDKIHQQDFVNWLLAQKGKKNDWKHNITQ [(Hyp^3)GIP]
Intact Peptide Remaining (%) 0 hrs. [1]: 100%
half-life [1]: > 8 h
remaining at 2 h, 2 μm [1]: 100%
remaining at 4 h, 2 μm [1]: 100%
remaining at 8 h, 2 μm [1]: 100%
resistance to DPP-IV degradation ([1]; words, up to 8 hours incubation): completely resistant
EC50 [2]: 1.34 µM
remaining activity at 0.1 µM ([2]; CHL, read-out: cAMP response in presence of 10^-7 M GIP (% GIP max)): 56 ± 4%

Molecule: YA[Hyp]GTFISDYSIAMDK(Palmitoyl)IHQQDFVNWLLAQKGKKNDWKHNITQ [(Hyp^3)LysPAL^16GIP]
Intact Peptide Remaining (%) 0 hrs. [1]: 100%
half-life [1]: > 8 h
remaining at 2 h, 2 μm [1]: 100%
remaining at 4 h, 2 μm [1]: 100%
remaining at 8 h, 2 μm [1]: 100%

Cyclic AMP EC50 (nm) [3]: 0.5 nm
cAMP response in presence of 10^-7 M GIP (% GIP max) [3]: 100 % GIP max
Molecule: native GIP (glucose-dependent insulinotropic polypeptide; gastric inhibitory polypeptide), GIP(1-42) (from UniProt P09681 52-93) (ligand)

Cyclic AMP EC50 (nm) [3]: 138 nm
cAMP response in presence of 10^-7 M GIP (% GIP max) [3]: 48 % GIP max
B1: (Hyp^3)LysPAL^16GIP (peptide)
peptide: YA[Hyp]GTFISDYSIAMDK(Palmitoyl)IHQQDFVNWLLAQKGKKNDWKHNITQ

Cyclic AMP EC50 (nm) [3]: 1340 nm
cAMP response in presence of 10^-7 M GIP (% GIP max) [3]: 56 % GIP max
B2: (Hyp^3)GIP (peptide)
peptide: YA[Hyp]GTFISDYSIAMDKIHQQDFVNWLLAQKGKKNDWKHNITQ

Cyclic AMP EC50 (nm) [3]: 870 nm
cAMP response in presence of 10^-7 M GIP (% GIP max) [3]: 63 % GIP max
B3: (Pro^3)LysPAL^16GIP (peptide)
peptide: YAPGTFISDYSIAMDK(Palmitoyl)IHQQDFVNWLLAQKGKKNDWKHNITQ

Cyclic AMP EC50 (nm) [3]: 2.3 nm
cAMP response in presence of 10^-7 M GIP (% GIP max) [3]: 88 % GIP max
B4: (Ala^3)GIP (peptide)
peptide: YAAGTFISDYSIAMDKIHQQDFVNWLLAQKGKKNDWKHNITQ

Cyclic AMP EC50 (nm) [3]: 1 nm
cAMP response in presence of 10^-7 M GIP (% GIP max) [3]: 62 % GIP max
B5: (Phe^3)GIP (peptide)
peptide: B4 peptide with A3F

Cyclic AMP EC50 (nm) [3]: 2.6 nm
cAMP response in presence of 10^-7 M GIP (% GIP max) [3]: 63.5 % GIP max
B6: (Lys^3)GIP (peptide)
peptide: B4 peptide with A3K

Cyclic AMP EC50 (nm) [3]: 3 nm
cAMP response in presence of 10^-7 M GIP (% GIP max) [3]: 78 % GIP max
B7: (Trp^3)GIP (peptide)
peptide: B4 peptide with A3W

Cyclic AMP EC50 (nm) [3]: 1.5 nm
cAMP response in presence of 10^-7 M GIP (% GIP max) [3]: 76 % GIP max
B8: (Tyr^3)GIP (peptide)
peptide: B4 peptide with A3Y

Cyclic AMP EC50 (nm) [3]: 207 nm
cAMP response in presence of 10^-7 M GIP (% GIP max) [3]: 66 % GIP max
B9: (Pro^3)GIP (peptide)
peptide: B4 peptide with A3P
